Data on 5 molecules can be found in publication PMC7979749, “Structural basis of the dynamic human CEACAM1 monomer-dimer equilibrium” (Communications Biology, 2021).

For orientation: Kd means the constant that tells how readily two partners part at equilibrium. The stoichiometry N is a count of units in the complex or per binding partner.

In data set [1] the target is human CEACAM1 IgV domain, N97A mutant (human) (UniProt P13688). The data set is described as follows: NMR titration; 15N-HSQC spectra at varying protein concentration (N97A 16-500 μM; WT 10 μM and 1 mM); 10 mM HEPES, 50 mM NaCl, pH 7.0, 25 °C; dimer to monomers; rough estimate from peak trajectories of Q44 and A49.
Another data set concerns the target TIM-3 IgV (Homo sapiens) (UniProt Q8TDQ0). As to conditions: cited from earlier work.
In data set [2] the target is CEACAM1 IgV (Homo sapiens) (UniProt P13688). The following applies: cited from earlier work.
Data set [3] deals with the molecule itself. Description: SEC-MALS; samples at 100 μM injected onto TSK-gel Bioassist G4SWxl, 10 mM HEPES pH 7.4, 150 mM, 0.5 mL/min; self-association, monomer to dimer. For orientation: SEC sorts molecules by how far they enter the pores of the column.
Data set [4] concerns the molecule itself. The data set is described as follows: crystal structure; mutant proteins concentrated to 10 mg/ml (exceeding 800 μM); molecular replacement with PDB 4QXW; self-association in the asymmetric unit.

Substitutions are numbered along the chain they refer to. In names and notes the source's numbering stands.

TIM-3 IgV (Homo sapiens), sequence (Q8TDQ0 22-124): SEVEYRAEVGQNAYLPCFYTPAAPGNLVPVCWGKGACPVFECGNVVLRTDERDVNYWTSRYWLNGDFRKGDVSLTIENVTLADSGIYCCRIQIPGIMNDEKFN

Consider “human CEACAM1 IgV domain, N97A mutant (from UniProt P13688 35-141) (domain or fragment)”, for which the Kd in data set [1] is above 1000 µM.
In the case of CEACAM1 IgV (from UniProt P13688), the Kd is 2.5 µM with TIM-3 IgV (Homo sapiens) and 0.45 µM in data set [2].

B1: human CEACAM1 IgV domain, V39A mutant (domain or fragment)
chain: QLTTESMPFNVAEGKEVLLLVHNLPQQLFGYSWYKGERADGNRQIVGYAIGTQQATPGPANSGRETIYPNASLLIQNVTQNDTGFYTLQVIKSDLVNEEATGQFHVY
notes: unglycosylated; also called hCEACAM1 V39A
For B1, the binding result in data set [3] is recorded as “binds”.

B2: human CEACAM1 IgV domain, I91A mutant (domain or fragment)
chain: B1 chain with A39V, I91A
notes: unglycosylated
Take B2: in data set [4], the binding result is reported as “binds”.

B3: human CEACAM1 IgV domain, wildtype (domain or fragment)
chain: AQLTTESMPFNVAEGKEVLLLVHNLPQQLFGYSWYKGERVDGNRQIVGYAIGTQQATPGPANSGRETIYPNASLLIQNVTQNDTGFYTLQVIKSDLVNEEATGQFHVY
notes: Carcinoembryonic antigen-related cell adhesion molecule 1 (CEACAM1), human, N-terminal IgV domain; NMR samples were 15N/13C or 15N/13C/2H labelled; also called hCEACAM1 WT IgV; WT; source: isotope-labelled samples expressed from E. coli in M9 minimal medium, purified
B3: the “stoichiometry N” value in data set [3] was 2.
